T1: Bre1-LR (Bre1 residues 227–700, LBD and RING domains), 6× histidine tag (budding yeast, UniProt Q07457 227-700)
T1 construct: two Bre1 polypeptides form the dimeric coiled-coils of the LBD in the crystal structure; also called WT; source: E. coli BL21 Rosetta (DE3), purified (Ni-NTA, heparin, gel filtration)
T1 sequence (looked up): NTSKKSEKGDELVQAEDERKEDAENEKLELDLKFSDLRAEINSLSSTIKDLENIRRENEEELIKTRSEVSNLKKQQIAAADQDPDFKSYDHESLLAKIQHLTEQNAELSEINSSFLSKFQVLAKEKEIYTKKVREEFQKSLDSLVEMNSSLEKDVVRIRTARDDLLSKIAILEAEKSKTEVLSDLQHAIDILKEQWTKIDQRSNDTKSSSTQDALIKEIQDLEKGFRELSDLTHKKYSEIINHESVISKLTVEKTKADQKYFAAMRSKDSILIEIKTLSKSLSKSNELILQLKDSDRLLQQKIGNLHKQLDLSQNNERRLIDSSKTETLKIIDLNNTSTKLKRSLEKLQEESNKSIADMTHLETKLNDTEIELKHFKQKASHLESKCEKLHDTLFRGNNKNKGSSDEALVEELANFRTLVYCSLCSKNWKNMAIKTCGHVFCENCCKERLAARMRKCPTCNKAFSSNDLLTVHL

T2: Bre1, 6× histidine tag, purified (budding yeast, UniProt Q07457 1-700)
T2 construct: Bre1, budding yeast; the BRE1 gene inserted into pET26b; source: E. coli BL21 Rosetta (DE3), purified (Ni-NTA, heparin, gel filtration)
T2 sequence (looked up): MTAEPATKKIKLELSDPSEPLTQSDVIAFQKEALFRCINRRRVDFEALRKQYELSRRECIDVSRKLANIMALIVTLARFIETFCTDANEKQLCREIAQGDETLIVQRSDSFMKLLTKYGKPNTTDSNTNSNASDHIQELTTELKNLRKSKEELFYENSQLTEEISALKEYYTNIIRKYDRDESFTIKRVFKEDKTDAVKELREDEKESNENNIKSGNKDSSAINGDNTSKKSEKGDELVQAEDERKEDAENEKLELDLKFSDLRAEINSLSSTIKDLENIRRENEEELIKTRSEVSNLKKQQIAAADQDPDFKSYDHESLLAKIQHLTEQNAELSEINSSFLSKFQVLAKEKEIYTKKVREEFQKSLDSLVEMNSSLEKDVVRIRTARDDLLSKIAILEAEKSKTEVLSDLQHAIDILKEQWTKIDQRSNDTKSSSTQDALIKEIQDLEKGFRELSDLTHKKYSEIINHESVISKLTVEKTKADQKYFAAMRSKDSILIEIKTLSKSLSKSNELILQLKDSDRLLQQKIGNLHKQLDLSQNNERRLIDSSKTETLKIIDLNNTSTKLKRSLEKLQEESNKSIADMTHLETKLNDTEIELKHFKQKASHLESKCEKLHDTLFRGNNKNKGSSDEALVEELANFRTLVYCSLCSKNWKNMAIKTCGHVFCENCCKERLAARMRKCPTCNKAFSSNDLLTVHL


Legend:
Settings in all cases: both partners purified
[1] = biological target: T1, Bre1-LR (Bre1 residues 227–700, LBD and …); test: ITC; Lge1-CT (50–60 μM) injected into Bre1-LR (15 μM); 25°C, 20 mM TRIS (pH 7.5), 200 mM sodium chloride
[2] = biological target: T1, Bre1-LR (Bre1 residues 227–700, LBD and …); test: SPR; Lge1-CT immobilised on a CM5 chip, Bre1-LR flown over; Biacore 8K, 25°C, 20 mM HEPES (pH 7.5), 200 mM sodium chloride, 0.02% Tween 20
[3] = biological target: T2, Bre1, 6× histidine tag, purified; test: co-sedimentation; 5%–45% sucrose gradient, purified Bre1, Lge1 or their mixture; 20 mM TRIS (pH 7.5), 10 mM potassium chloride, 5 mM magnesium chloride; 27 000 rpm, 15 h, 4°C

Kd [1] [nM] | dH [1] [kcal/mol] | stoichiometry N [1] | Kd [2] [nM] | koff [2] [s⁻¹] | kon [2] [M⁻¹ s⁻¹] | binding result [3] | Binder
21.1 ± 3.7 | -53.6 ± 0.8 | 0.37 ± 0.022 | 20.7 | 0.00155 | 74800 | – | Lge1-CT I318D (domain or fragment, budding yeast, UniProt Q02796 261-332, looked up, Lge1, budding yeast, residues 261-332; source: E. coli BL21 Rosetta (DE3): cleared cell extract on chitin resin (pull-down); purified (chitin, heparin, gel filtration) for ITC and SPR) KNVKKTNNTESECEKAREVFKESDSIDSALEELNLKINSNELELRLLNNQCDKHALNDQLTQEKLDSLLLMQ
33.9 ± 8.4 | -43.6 ± 1.1 | 0.392 ± 0.005 | 51.8 | 0.00947 | 183000 | – | Lge1-CT K313E/H314E (domain or fragment, budding yeast, UniProt Q02796 261-332, looked up, Lge1, budding yeast, residues 261-332; source: E. coli BL21 Rosetta (DE3): cleared cell extract on chitin resin (pull-down); purified (chitin, heparin, gel filtration) for ITC and SPR) KNVKKTNNTESECEKAREVFKESDSIDSALEELNLKINSNELELRLLNNQCDEEALNIQLTQEKLDSLLLMQ
8.77 ± 2.09 | -48 ± 0.7 | 0.329 ± 0.001 | 49.8 | 0.00509 | 102000 | – | Lge1-CT K324E (domain or fragment, budding yeast, UniProt Q02796 261-332, looked up, Lge1, budding yeast, residues 261-332; source: E. coli BL21 Rosetta (DE3): cleared cell extract on chitin resin (pull-down); purified (chitin, heparin, gel filtration) for ITC and SPR) KNVKKTNNTESECEKAREVFKESDSIDSALEELNLKINSNELELRLLNNQCDKHALNIQLTQEELDSLLLMQ
8.06 ± 1.52 | -61.2 ± 0.6 | 0.367 ± 0.001 | 58.7 | 0.00328 | 55900 | – | Lge1-CT L325N (domain or fragment, budding yeast, UniProt Q02796 261-332, looked up, Lge1, budding yeast, residues 261-332; source: E. coli BL21 Rosetta (DE3): cleared cell extract on chitin resin (pull-down); purified (chitin, heparin, gel filtration) for ITC and SPR) KNVKKTNNTESECEKAREVFKESDSIDSALEELNLKINSNELELRLLNNQCDKHALNIQLTQEKNDSLLLMQ
52.2 ± 4.9 | -65.4 ± 0.7 | 0.293 ± 0.002 | 62.8 | 0.00527 | 84000 | – | Lge1-CT L316N (domain or fragment, budding yeast, UniProt Q02796 261-332, looked up, Lge1, budding yeast, residues 261-332; source: E. coli BL21 Rosetta (DE3): cleared cell extract on chitin resin (pull-down); purified (chitin, heparin, gel filtration) for ITC and SPR) KNVKKTNNTESECEKAREVFKESDSIDSALEELNLKINSNELELRLLNNQCDKHANNIQLTQEKLDSLLLMQ
132 ± 24 | -46.7 ± 2.2 | 0.587 ± 0.011 | 63.8 | – | – | – | Lge1-CT E303K (domain or fragment, budding yeast, UniProt Q02796 261-332, looked up, Lge1, budding yeast, residues 261-332; source: E. coli BL21 Rosetta (DE3): cleared cell extract on chitin resin (pull-down); purified (chitin, heparin, gel filtration) for ITC and SPR) KNVKKTNNTESECEKAREVFKESDSIDSALEELNLKINSNELKLRLLNNQCDKHALNIQLTQEKLDSLLLMQ
23.7 ± 3.8 | -49.9 ± 0.6 | 0.37 ± 0.002 | 50.8 | 0.00417 | 82000 | – | Lge1-CT L320N (domain or fragment, budding yeast, UniProt Q02796 261-332, looked up, Lge1, budding yeast, residues 261-332; source: E. coli BL21 Rosetta (DE3): cleared cell extract on chitin resin (pull-down); purified (chitin, heparin, gel filtration) for ITC and SPR) KNVKKTNNTESECEKAREVFKESDSIDSALEELNLKINSNELELRLLNNQCDKHALNIQNTQEKLDSLLLMQ
– | – | – | – | – | – | binds | Lge1, 6× histidine tag, purified (natural protein, budding yeast, UniProt Q02796 1-332, looked up, Lge1, budding yeast; source: E. coli BL21 Rosetta (DE3), purified (Ni-NTA in 8 M urea, urea removed by washing)) MSGYTGNNYSRYSSTPPRQRGGYHHARRSRGGAGGSYYRGGNASYGARYNSDYEQPPQEGDLRQTGAYYRNGYTDTRPYYSANSRHYQAQPSPRYNNGTNSYHLPQRGNSQDTNGRTTSASQEDNDEKRVKSRYRNMQADHPRQQPMSVGSTSSRNGSSGNSSTSSTSNGLPPPPSVSSITNNRSYHSSAYPYSSSHTYNNYHHRETPPPPPSNGYYAKGYPVHVPENRSNSDGSSSSVVKKKRILDMKDSPFIYLTDFDKNVKKTNNTESECEKAREVFKESDSIDSALEELNLKINSNELELRLLNNQCDKHALNIQLTQEKLDSLLLMQ

Source: article PMC12802937 (Nucleic Acids Research, 2026)
